What was measured:
Assay type in all cases: cell-based
[1] = test system: HDR-proficient DLD1 cells; test: Selectivity of combination therapy in HDR-proficient cells; conditions: 5 nM olaparib, 10 μM di-scFv, alone or combined
Method: Homology-directed repair (HDR) deficient BRCA2-DLD1 cells and PTEN-U251 cells were treated with control, 5 nM olaparib, 10 μM di-scFv, or 10 μM di-scFv+5 nM olaparib. Surviving fraction was determined by colony formation assay.
It was then determined whether the combination of di-scFv and olaparib is simply universally cytotoxic, regardless of DNA repair status. To evaluate this possibility, HDR-proficient DLD1 cells were treated with the above regimen to confirm selectivity of combination therapy to HDR-deficient malignant cells.

[2] = test system: BRCA2-proficient DLD1 colon cancer cells; test: Cell viability by Trypan blue exclusion assay, BRCA2-proficient cells; conditions: BRCA2-proficient DLD1, 7 days, FIG. 10
Method: (§1) Next, a matched pair of BRCA2-proficient and deficient DLD1 colon cancer cells was treated with control media or media containing Variants 10, 13, 15, or 16. Cell viability was determined 7 days later by Trypan blue exclusion assay and by direct visualization of cell morphology by light microscopy. […] Representative light microscope images shown the changes in morphology in the BRCA2-deficient cancer cells treated with the variants are shown in FIG. 10, Panel A. Quantitative analysis of the cell survival by Trypan blue exclusion assay is shown in FIG. 10, Panel B.

[3] = test system: PTEN-deficient U251 human glioma cells; test: Phospho-53BP1 foci accumulation (DNA damage), PTEN-deficient cells; conditions: PTEN-deficient U251, twenty-four hours, FIG. 8
Method: A matched pair of PTEN-proficient and deficient U251 human glioma cells were treated with control media or media containing Variant 10, 11, 13, 15, or 16 for twenty-four hours. Cells were then washed, fixed, blocked, and then probed with an anti-phospho-53BP1 antibody overnight. Cells were then washed and incubated with an AlexaFluor555-conjugated secondary antibody. Finally, cells were washed, counterstained with DAPI, and visualized under a fluorescence microscope. Images were saved and evaluated by CellProfiler to determine mean number of phospho-53BP1 foci per cell.
A matched pair of BRCA2-proficient and deficient DLD1 colon cancer cells and PTEN-proficient and deficient U251 human glioma cells were treated with control media or media containing 10 μM di-scFv variant 13 (SEQ ID NO: 41), 5 nM olaparib, or combination treatment.

[4] = test system: PTEN-deficient U87 human glioma cells; test: Cell viability by Trypan blue exclusion assay and light microscopy; conditions: PTEN-deficient U87, 7 days after treatment, FIG. 9
Method: Cell viability of PTEN-deficient U87 human glioma cells was also assessed following treatment with control media or media containing Variants 10, 13, 15, or 16. Cell viability was determined 7 days after treatment using Trypan blue exclusion assay and by direct visualization of cell morphology by light microscopy.

[5] = test system: BRCA2-deficient DLD1 colon cancer cells; test: Cell viability by Trypan blue exclusion assay, BRCA2-deficient cells; conditions: BRCA2-deficient DLD1, 7 days, FIG. 10
Method: as §1

DLD1 colon cancer cells = test: Alkaline phosphatase-based survey of nuclear penetration; conditions: DLD1 cells treated one hour; FIG. 5

## O=C(c1cc(Cc2n[nH]c(=O)c3ccccc23)ccc1F)N1CCN(C(=O)C2CC2)CC1 [olaparib, reference compound]
[1]
  cell death: remain resistant

B1: Variant 10: cell penetrating anti-DNA di-scFv variant, amino acid sequence SEQ ID NO: 38 (protein)
scFv: DIQMTQSPSSLSASVGDRVTITCRASKSVSTSSYSYMHWYQQKPGKAPKLLIKYASYLESGVPSRFSGSGSGTDFTLTISSLQPEDFATYYCQHSREFPWTFGQGTKVEIKRADAAPGGGGSGGGGSGGGGSEVQLVESGGGLVQPGGSLRLSCAASGFTFSNYGMHWVRQAPGKGLEWVSYISSSSSTIYYADSVKGRFTISRDNAKNSLYLQMNSLRAEDTAVYYCARRGLLLDYWGQGTTVTVSSASTKGPSVFPLAPLESSGSDIQMTQSPSSLSASVGDRVTITCRASKSVSTSSYSYMHWYQQKPGKAPKLLIKYASYLESGVPSRFSGSGSGTDFTLTISSLQPEDFATYYCQHSREFPWTFGQGTKVEIKRADAAPGGGGSGGGGSGGGGSEVQLVESGGGLVQPGGSLRLSCAASGFTFSNYGMHWVRQAPGKGLEWVSYISSSSSTIYYADSVKGRFTISRDNAKNSLYLQMNSLRAEDTAVYYCARRGLLLDYWGQGTTVTVSS
modifications: Variant 10
[2]
  cell viability (toxicity): not toxic
[3]
  mean number of phospho-53BP1 foci per cell: increased the number of foci
[4]
  cell viability relative to control treated cells: caused reductions in cell viability
[5]
  cell viability (cell killing): killed by the variants

B2: Variant 16: cell penetrating anti-DNA di-scFv variant, amino acid sequence SEQ ID NO: 44 (protein)
scFv: DIQMTQSPSSLSASVGDRVTITCRASKTVSTSSYSYMHWYQQKPGKAPKLLIKYASYLESGVPSRFSGSGSGTDFTLTISSLQPEDFATYYCQHSREFPWTFGQGTKVEIKRADAAPGGGGSGGGGSGGGGSEVQLVESGGGLVQPGGSLRLSCAASGFTFSNYGMHWVRQAPGKGLEWVSYISSGSSTIYYADSVKGRFTISRDNAKNSLYLQMNSLRAEDTAVYYCARRGLLLDYWGQGTTVTVSSASTKGPSVFPLAPLESSGSDIQMTQSPSSLSASVGDRVTITCRASKTVSTSSYSYMHWYQQKPGKAPKLLIKYASYLESGVPSRFSGSGSGTDFTLTISSLQPEDFATYYCQHSREFPWTFGQGTKVEIKRADAAPGGGGSGGGGSGGGGSEVQLVESGGGLVQPGGSLRLSCAASGFTFSNYGMHWVRQAPGKGLEWVSYISSGSSTIYYADSVKGRFTISRDNAKNSLYLQMNSLRAEDTAVYYCARRGLLLDYWGQGTTVTVSS
modifications: Variant 16
[2]
  cell viability (toxicity): not toxic
[3]
  mean number of phospho-53BP1 foci per cell: increased the number of foci
[4]
  cell viability relative to control treated cells: caused reductions in cell viability
[5]
  cell viability (cell killing): killed by the variants

B3: Variant 11: cell penetrating anti-DNA di-scFv variant, amino acid sequence SEQ ID NO: 39 (protein)
scFv: DIQMTQSPSSLSASVGDRVTITCRASKSVSTSSYSYMHWYQQKPGKAPKLLIKYASYLESGVPSRFSGSGSGTDFTLTISSLQPEDFATYYCQHSREFPWTFGQGTKVEIKRADAAPGGGGSGGGGSGGGGSEVQLVESGGGVVQPGGSLRLSCAASGFTFSNYGMHWVRQAPEKGLEWVSYISSSSSTIYYADSVKGRFTISRDNSKNTLYLQMNSLRAEDTAVYYCARRGLLLDYWGQGTTVTVSSASTKGPSVFPLAPLESSGSDIQMTQSPSSLSASVGDRVTITCRASKSVSTSSYSYMHWYQQKPGKAPKLLIKYASYLESGVPSRFSGSGSGTDFTLTISSLQPEDFATYYCQHSREFPWTFGQGTKVEIKRADAAPGGGGSGGGGSGGGGSEVQLVESGGGVVQPGGSLRLSCAASGFTFSNYGMHWVRQAPEKGLEWVSYISSSSSTIYYADSVKGRFTISRDNSKNTLYLQMNSLRAEDTAVYYCARRGLLLDYWGQGTTVTVSS
modifications: Variant 11
[3]
  mean number of phospho-53BP1 foci per cell: increased the number of foci

B4: Variant 15: cell penetrating anti-DNA di-scFv variant, amino acid sequence SEQ ID NO: 43 (protein)
scFv: DIQMTQSPSSLSASLGDRATITCRASKTVSTSSYSYMHWYQQKPGQPPKLLIKYASYLESGVPSRFSGSGSGTDFTLTISSLQPEDAATYYCQHSREFPWTFGGGTKVEIKRADAAPGGGGSGGGGSGGGGSEVQLVESGGGDVKPGGSLRLSCAASGFTFSNYGMHWVRQAPEKGLEWVSYISSGSSTIYYADSVKGRFTISRDNSKNTLYLQMNSLRAEDTAVYYCARRGLLLDYWGQGTTVTVSSASTKGPSVFPLAPLESSGSDIQMTQSPSSLSASLGDRATITCRASKTVSTSSYSYMHWYQQKPGQPPKLLIKYASYLESGVPSRFSGSGSGTDFTLTISSLQPEDAATYYCQHSREFPWTFGGGTKVEIKRADAAPGGGGSGGGGSGGGGSEVQLVESGGGDVKPGGSLRLSCAASGFTFSNYGMHWVRQAPEKGLEWVSYISSGSSTIYYADSVKGRFTISRDNSKNTLYLQMNSLRAEDTAVYYCARRGLLLDYWGQGTTVTVSS
modifications: Variant 15
[2]
  cell viability (toxicity): not toxic
[3]
  mean number of phospho-53BP1 foci per cell: increased the number of foci
[4]
  cell viability relative to control treated cells: caused reductions in cell viability
[5]
  cell viability (cell killing): killed by the variants
DLD1 colon cancer cells
  nuclear penetration (histogram of cell counts versus nuclear staining intensity) relative to the yeast prototype: notable right shift and narrowing of distributions relative to the yeast prototype

From patent US20240052063A1, “Binding Proteins 2” (Nucleus Therapeutics Pty. Ltd., priority 2017, published 2024)
